From the supplement of paper PMC11865577

What was measured:
Assay in all cases: pull-down binding Z-score (relative to library population); higher = stronger binding
Details in all cases: RNA library: Library-2
[1] = test system: TO-3-N3 (biotin conjugate)
In short: (§1)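 Heat-folded RNA library (1 μg, Cy5 or Cy3 end label, phosphate/NaCl/KCl buffer) was captured for 60 min at 25 °C on streptavidin beads displaying 100 pmol of biotin-conjugated small molecule, then washed three times. The bound fraction, eluted in hot SDS, was hybridised to a DNA barcode microarray at 55.5 °C for 20 h. Z-scores for binding were taken against the library mean and standard deviation after beads-only subtraction and trimmed averaging of replicate barcoded probes.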

TO-N3 (biotin conjugate) = test system: TO-N3 (biotin conjugate)
In short: as §1

[2] = test system: TO-N3-2 (biotin conjugate)
In short: as §1

[3] = test system: TO-3-N3-2 (biotin conjugate)
In short: as §1

Q: Which results are given for “CGGCGGGCACGUAGUGUAGCUAGUCAAUCCAUCAUUGCCUACACUAUGUCACUUGGUG [SHAPE_invitro_SARS-CoV-2_Motif_429]”?
A: pull-down binding Z-score [1]: 0.745; pull-down binding Z-score (TO-N3 (biotin conjugate)): 1.13; pull-down binding Z-score [2]: 1.07; pull-down binding Z-score [3]: 0.313

Q: With “CGGGACCAACGAGGAAAUGUACUACUGUCUCCCG [IAV_invivo_PB2_1_Motif_23+IAV_invivo_PB2_1_Motif_23]” as the sequence, how does the “pull-down binding Z-score” value [1] read?
A: -0.431

Q: What about the “pull-down binding Z-score” value (TO-N3 (biotin conjugate)) of the same sequence?
A: -0.196

Q: And the “pull-down binding Z-score” value [2]?
A: 0.354

Q: What about the “pull-down binding Z-score” value [3] of the same sequence?
A: 0.118

Q: For CGGGCUUAUGUUGCUCG, which “pull-down binding Z-score” value [1] is on record?
A: -0.429

Q: What about the “pull-down binding Z-score” value (TO-N3 (biotin conjugate)) of the same sequence?
A: -0.791

Q: And the “pull-down binding Z-score” value [2]?
A: -0.956

Q: What about the “pull-down binding Z-score” value [3] of the same sequence?
A: -0.43

Q: Which results are given for “CGGGGCGGGAGGGGAAGGGACGCCCG [hsa-mir-6850]”?
A: pull-down binding Z-score [1]: 6.93; pull-down binding Z-score (TO-N3 (biotin conjugate)): 6.39; pull-down binding Z-score [2]: 5.1; pull-down binding Z-score [3]: 7.75

Q: Which results are given for “CGGUUGCUUGGUCAGCAAGUGCAUGUCAUGAUGGCAUGGGCUGGCUAACAAUCG [IAV_invivo_NA_6_Motif_7+IAV_invivo_NA_6_Motif_7]”?
A: pull-down binding Z-score [1]: -0.929; pull-down binding Z-score (TO-N3 (biotin conjugate)): -0.939; pull-down binding Z-score [2]: -0.222; pull-down binding Z-score [3]: -0.69

Q: What does the source list for “CGUGGUAUUCUUGCUAGUUACACUAGCCAUCCUUACUGCG”?
A: pull-down binding Z-score [1]: -0.913; pull-down binding Z-score (TO-N3 (biotin conjugate)): -1.1; pull-down binding Z-score [2]: -0.427; pull-down binding Z-score [3]: -0.37

Q: For “CGUUCGGAUGCUCGAACUGCACCUCAUGGUCAUGUUAUGGUUGAGCUGGUAGCAGAACUCGAAGGCAUUCAGUACG [SHAPE_invitro_SARS-CoV-2_Motif_11]”, which “pull-down binding Z-score” value [1] is on record?
A: -0.289

Q: And the “pull-down binding Z-score” value (TO-N3 (biotin conjugate))?
A: 0.0804

Q: What about the “pull-down binding Z-score” value [2] of the same sequence?
A: 1.57

Q: And the “pull-down binding Z-score” value [3]?
A: -0.454

Q: How did the “pull-down binding Z-score” value [1] turn out when “CUAACAAUCUAGUUGUAAUGGCCUACAUUACAGGUGGUGUUGUUCAG [SHAPE_invivo_SARS-CoV-2_Motif_39]” was run?
A: -0.352

Q: And the “pull-down binding Z-score” value (TO-N3 (biotin conjugate))?
A: -0.379

Q: And the “pull-down binding Z-score” value [2]?
A: -0.761

Q: What about the “pull-down binding Z-score” value [3] of the same sequence?
A: -0.607

Q: What does the source list for “CUAACAUGCUUAG [SHAPE_invitro_SARS-CoV-2_Motif_280]”?
A: pull-down binding Z-score [1]: 0.709; pull-down binding Z-score (TO-N3 (biotin conjugate)): 0.578; pull-down binding Z-score [2]: -0.734; pull-down binding Z-score [3]: -0.299

Q: What does the source list for CUAACUGAGAAUAAAUAUUCUCAAUUAG?
A: pull-down binding Z-score [1]: -0.985; pull-down binding Z-score (TO-N3 (biotin conjugate)): -1.59; pull-down binding Z-score [2]: -1.87; pull-down binding Z-score [3]: -0.937

Q: With “CUAAGUCACUAACUGAGAAUAAAUAUUCUCAAUUAGAUGAAGAG” as the sequence, how does the “pull-down binding Z-score” value [1] read?
A: -1.02

Q: And the “pull-down binding Z-score” value (TO-N3 (biotin conjugate))?
A: -1.15

Q: What about the “pull-down binding Z-score” value [2] of the same sequence?
A: -0.981

Q: And the “pull-down binding Z-score” value [3]?
A: -0.135

Q: For CUAAUAACACUAAAGGUUCAUUGCCUAUUAAUGUUAUAG, which “pull-down binding Z-score” value [1] is on record?
A: 0.171

Q: What about the “pull-down binding Z-score” value (TO-N3 (biotin conjugate)) of the same sequence?
A: -0.0515

Q: What about the “pull-down binding Z-score” value [2] of the same sequence?
A: -0.904

Q: And the “pull-down binding Z-score” value [3]?
A: -0.0592

Q: What does the source list for “CUACAAAGCAACCAUGAUCUGUAUUGUCAAGUCCAUGGUAAUGCACAUGUAG”?
A: pull-down binding Z-score [1]: -0.654; pull-down binding Z-score (TO-N3 (biotin conjugate)): -0.227; pull-down binding Z-score [2]: 0.374; pull-down binding Z-score [3]: -0.092

Q: What does the source list for CUACACUAGUGCCACAAGAGCACUAUGUUAG?
A: pull-down binding Z-score [1]: -0.402; pull-down binding Z-score (TO-N3 (biotin conjugate)): -0.127; pull-down binding Z-score [2]: 0.417; pull-down binding Z-score [3]: -0.213

Q: What does the source list for CUAGGUUUUUCUAUGUACUUGG?
A: pull-down binding Z-score [1]: 1.15; pull-down binding Z-score (TO-N3 (biotin conjugate)): 0.825; pull-down binding Z-score [2]: -0.376; pull-down binding Z-score [3]: 0.313

Q: For CUAGUUGUGAUGCAAUCAUGACUAG, which “pull-down binding Z-score” value [1] is on record?
A: -0.351

Q: What about the “pull-down binding Z-score” value (TO-N3 (biotin conjugate)) of the same sequence?
A: -0.883

Q: What about the “pull-down binding Z-score” value [2] of the same sequence?
A: -1.39

Q: And the “pull-down binding Z-score” value [3]?
A: -0.444

Q: Which “pull-down binding Z-score” value [1] does the source give for CUAUACAUUCUUUAAGAGUUUGUGUAG here?
A: -0.365

Q: What about the “pull-down binding Z-score” value (TO-N3 (biotin conjugate)) of the same sequence?
A: -0.583

Q: And the “pull-down binding Z-score” value [2]?
A: -1.28

Q: What about the “pull-down binding Z-score” value [3] of the same sequence?
A: -0.294

Q: “CUAUACUGUUACUAGAUCAGGCAUUAGUGUCUGAUGUUGGUGAUAGUGCGG” was tested. Which “pull-down binding Z-score” value [1] did it give?
A: -0.845

Q: What about the “pull-down binding Z-score” value (TO-N3 (biotin conjugate)) of the same sequence?
A: -0.939

Q: What about the “pull-down binding Z-score” value [2] of the same sequence?
A: -0.582

Q: What about the “pull-down binding Z-score” value [3] of the same sequence?
A: -0.622

Q: With “CUAUAGUAGCUGGUGGUAUUGUAGCUAUCGUAG [SHAPE_invitro_SARS-CoV-2_Motif_182]” as the sequence, how does the “pull-down binding Z-score” value [1] read?
A: 0.653

Q: And the “pull-down binding Z-score” value (TO-N3 (biotin conjugate))?
A: 0.874

Q: And the “pull-down binding Z-score” value [2]?
A: 1.04

Q: And the “pull-down binding Z-score” value [3]?
A: 0.54

Q: Which results are given for “CUAUCAGGCCGGUAG [DMSMaPseq_invitro_SARS-CoV-2_Motif_406]”?
A: pull-down binding Z-score [1]: -0.61; pull-down binding Z-score (TO-N3 (biotin conjugate)): -0.672; pull-down binding Z-score [2]: -0.0779; pull-down binding Z-score [3]: -0.579

Q: Which “pull-down binding Z-score” value [1] does the source give for “CUAUUCAAACAAUUGUUGAGGUUCAACCUCAAUUAGAGAUGGAACUUACACCAGUUGUUCAGACUAUUGAAGUGAAUAGUUUUAG [SHAPE_invivo_SARS-CoV-2_Multi_36_ComplexLevel_1]” here?
A: -0.49

Q: And the “pull-down binding Z-score” value (TO-N3 (biotin conjugate))?
A: -0.421

Q: What about the “pull-down binding Z-score” value [2] of the same sequence?
A: -0.461

Q: What about the “pull-down binding Z-score” value [3] of the same sequence?
A: -0.292

Q: Which results are given for “CUCAAACCCGUCCUUGAUUGGCUUGAAGAGAAGUUUAAGGAAGGUGUAGAG [DMSMaPseq_invitro_SARS-CoV-2_Motif_41]”?
A: pull-down binding Z-score [1]: -0.564; pull-down binding Z-score (TO-N3 (biotin conjugate)): -0.455; pull-down binding Z-score [2]: -0.0884; pull-down binding Z-score [3]: -0.174

Q: Which “pull-down binding Z-score” value [1] does the source give for “CUCAGAGUAGAAAUUUACAAGAAUUUAAACCCAGGAG [DMSMaPseq_invitro_SARS-CoV-2_Motif_359]” here?
A: -0.646

Q: And the “pull-down binding Z-score” value (TO-N3 (biotin conjugate))?
A: -0.463

Q: What about the “pull-down binding Z-score” value [2] of the same sequence?
A: -0.531

Q: And the “pull-down binding Z-score” value [3]?
A: -0.119

Q: How did the “pull-down binding Z-score” value [1] turn out when “CUCAGUCCAAGAUGGUAUUUCUACUACCUAGGAACUGGG [SHAPE_invivo_SARS-CoV-2_Motif_544]” was run?
A: -0.642

Q: And the “pull-down binding Z-score” value (TO-N3 (biotin conjugate))?
A: -0.646

Q: And the “pull-down binding Z-score” value [2]?
A: -0.627

Q: And the “pull-down binding Z-score” value [3]?
A: -0.217

Q: Which results are given for CUCCAAAAAGAG?
A: pull-down binding Z-score [1]: -0.901; pull-down binding Z-score (TO-N3 (biotin conjugate)): -1.21; pull-down binding Z-score [2]: -1.2; pull-down binding Z-score [3]: -0.675

Q: What does the source list for “CUCCAGCACGGAG [IAV_invivo_PB2_1_Motif_21+IAV_invivo_PB2_1_Motif_21]”?
A: pull-down binding Z-score [1]: -0.457; pull-down binding Z-score (TO-N3 (biotin conjugate)): -0.877; pull-down binding Z-score [2]: -1.17; pull-down binding Z-score [3]: -0.425

Q: What does the source list for “CUCCAGGAGGGG [IAV_invivo_PB2_1_Motif_10+IAV_invivo_PB2_1_Motif_10]”?
A: pull-down binding Z-score [1]: -0.481; pull-down binding Z-score (TO-N3 (biotin conjugate)): -0.668; pull-down binding Z-score [2]: -0.309; pull-down binding Z-score [3]: -0.312

Q: For “CUCCUUUGAUGGUUGCAUACAUGUUGGAG [IAV_invivo_PB2_1_Motif_8+IAV_invivo_PB2_1_Motif_8]”, which “pull-down binding Z-score” value [1] is on record?
A: -0.359

Q: And the “pull-down binding Z-score” value (TO-N3 (biotin conjugate))?
A: -0.689

Q: And the “pull-down binding Z-score” value [2]?
A: -0.427

Q: What about the “pull-down binding Z-score” value [3] of the same sequence?
A: -0.208

Q: With “CUCGUCUAUCUUCUGCAGGCUGCUUACGGUUUCGUCCGUGUUGCAGCCGAUCAUCAGCACAUCUAGGUUUCGUCCGGGUGUGACCGAAAGGUAAGAUGGAGAG” as the sequence, how does the “pull-down binding Z-score” value [1] read?
A: -0.0693

Q: What about the “pull-down binding Z-score” value (TO-N3 (biotin conjugate)) of the same sequence?
A: -0.000928

Q: And the “pull-down binding Z-score” value [2]?
A: 0.408

Q: And the “pull-down binding Z-score” value [3]?
A: -0.556

Q: Which “pull-down binding Z-score” value [1] does the source give for “CUCGUCUAUCUUCUGCAGGCUGCUUACGGUUUCGUCCGUGUUGCAGCCGAUCAUCAGCACAUCUAGGUUUUGUCCGGGUGUGACCGAAAGGUAAGAUGGAGAG” here?
A: -0.827

Q: What about the “pull-down binding Z-score” value (TO-N3 (biotin conjugate)) of the same sequence?
A: -0.836

Q: And the “pull-down binding Z-score” value [2]?
A: -0.32

Q: And the “pull-down binding Z-score” value [3]?
A: -0.563

Q: How did the “pull-down binding Z-score” value [1] turn out when “CUCUAUGACAAACUUGUUUCAAGCUUUUUGGAAAUGAAGAGUGAAAAGCAAGUUGAACAAAAGAUCGCUGAG” was run?
A: -0.302

Q: And the “pull-down binding Z-score” value (TO-N3 (biotin conjugate))?
A: -0.314

Q: And the “pull-down binding Z-score” value [2]?
A: -0.00802

Q: What about the “pull-down binding Z-score” value [3] of the same sequence?
A: -0.291

Q: How did the “pull-down binding Z-score” value [1] turn out when “CUCUCAUCGAUCUCCAAGAACUUGGAAAGUAUGAGCAG [SHAPE_invitro_SARS-CoV-2_Motif_456]” was run?
A: -0.197

Q: What about the “pull-down binding Z-score” value (TO-N3 (biotin conjugate)) of the same sequence?
A: -0.095

Q: And the “pull-down binding Z-score” value [2]?
A: 0.281

Q: And the “pull-down binding Z-score” value [3]?
A: -0.286
